The text below walks through data of patent US6420345.

As usually defined, the Ki is the equilibrium dissociation constant of an inhibitor or competing ligand from its target.

One assay has as its target CDC2/cyclin B complex (UniProt P06493). Briefly: cell-based or functional assay.
Assay [1] has as its target CDK4/cyclin D1 complex (UniProt P11802). Briefly: cell-based or functional assay.
The next assay deals with CDK2/cyclin A complex (UniProt P24941). Briefly: cell-based or functional assay.
The target of a further assay is CDK2/cyclin E complex (UniProt P24941). The assay can be described thus: cell-based or functional assay.
Assay [2] deals with CDK4/cyclin D1 complex (UniProt P11802). Briefly: in vitro kinase inhibition assay (32P incorporation into GST-Rb).
Sequence of CDK4/cyclin D1 complex (P11802 whole entry, chain 1 of 2): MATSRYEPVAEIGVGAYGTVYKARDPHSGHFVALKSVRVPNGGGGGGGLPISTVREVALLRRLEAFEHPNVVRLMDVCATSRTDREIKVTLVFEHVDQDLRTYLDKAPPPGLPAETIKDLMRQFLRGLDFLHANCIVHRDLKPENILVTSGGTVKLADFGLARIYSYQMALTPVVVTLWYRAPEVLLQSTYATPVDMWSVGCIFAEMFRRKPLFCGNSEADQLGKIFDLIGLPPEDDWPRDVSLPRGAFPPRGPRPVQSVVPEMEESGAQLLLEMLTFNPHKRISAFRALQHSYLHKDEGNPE
Sequence of CDK4/cyclin D1 complex (P24385 whole entry, chain 2 of 2, further chain): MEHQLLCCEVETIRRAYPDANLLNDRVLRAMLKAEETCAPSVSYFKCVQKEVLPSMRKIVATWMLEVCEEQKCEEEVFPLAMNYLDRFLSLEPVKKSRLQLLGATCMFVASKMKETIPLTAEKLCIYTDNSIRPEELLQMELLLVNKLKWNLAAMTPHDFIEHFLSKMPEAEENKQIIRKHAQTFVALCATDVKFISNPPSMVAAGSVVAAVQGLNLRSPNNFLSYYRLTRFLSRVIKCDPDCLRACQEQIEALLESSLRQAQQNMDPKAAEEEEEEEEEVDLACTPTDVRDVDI

Sequence of CDC2/cyclin B complex (P06493 whole entry, chain 1 of 2): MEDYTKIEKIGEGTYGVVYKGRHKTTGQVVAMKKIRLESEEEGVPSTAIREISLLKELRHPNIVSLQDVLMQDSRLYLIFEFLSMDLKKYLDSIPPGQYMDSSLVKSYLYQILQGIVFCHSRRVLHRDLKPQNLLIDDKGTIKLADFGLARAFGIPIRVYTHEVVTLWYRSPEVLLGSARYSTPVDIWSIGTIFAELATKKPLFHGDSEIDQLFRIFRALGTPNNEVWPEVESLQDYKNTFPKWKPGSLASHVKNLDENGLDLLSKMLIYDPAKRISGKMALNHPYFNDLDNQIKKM
Sequence of CDC2/cyclin B complex (P14635 whole entry, chain 2 of 2, further chain): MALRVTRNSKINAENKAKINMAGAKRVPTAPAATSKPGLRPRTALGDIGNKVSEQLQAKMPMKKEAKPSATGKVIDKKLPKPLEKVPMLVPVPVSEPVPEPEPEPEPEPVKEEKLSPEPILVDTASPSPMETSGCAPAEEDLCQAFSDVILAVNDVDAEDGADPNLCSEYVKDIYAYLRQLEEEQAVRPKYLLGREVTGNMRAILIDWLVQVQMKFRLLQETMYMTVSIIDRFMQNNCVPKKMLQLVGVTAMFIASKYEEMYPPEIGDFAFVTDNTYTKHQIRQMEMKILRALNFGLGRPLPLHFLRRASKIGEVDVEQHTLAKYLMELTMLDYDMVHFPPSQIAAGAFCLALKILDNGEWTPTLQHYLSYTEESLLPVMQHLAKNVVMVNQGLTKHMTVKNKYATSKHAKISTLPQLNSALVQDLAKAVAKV

Turning to “human p27 (full length, 6xHis and HA tagged) (from UniProt P46527 1-198)”, the IC50, in vitro kinase assay in the assay with CDC2/cyclin B complex amounted to 20 nM; with CDK4/cyclin D1 complex [1], 63 nM.

For the substance p27-p16 fusion protein, the IC50, in vitro kinase assay in the assay with CDC2/cyclin B complex amounted to 15 nM; with CDK2/cyclin A complex, 25 nM; with CDK2/cyclin E complex it was 30 nM; with CDK4/cyclin D1 complex [1], 25 nM. Also, in the assay with CDK4/cyclin D1 complex [2], the Ki turned out to be 23 nM.
